Measurements: US20230250154A1 (CYTONICS, published 2023)

Tests used:
Assay in all cases: cell-based or functional assay
MMP8 = MMP8 (human, UniProt P22894 101-467, limits assumed)
MMP9 = MMP9 (human, UniProt P14780 107-707, limits assumed)
MMP13 = MMP13 (human, UniProt P45452 104-471, limits assumed)
ADAMTS5 = target: T1, ADAMTS5 (human, UniProt Q9UNA0 262-622, limits assumed)
T1 sequence (looked up): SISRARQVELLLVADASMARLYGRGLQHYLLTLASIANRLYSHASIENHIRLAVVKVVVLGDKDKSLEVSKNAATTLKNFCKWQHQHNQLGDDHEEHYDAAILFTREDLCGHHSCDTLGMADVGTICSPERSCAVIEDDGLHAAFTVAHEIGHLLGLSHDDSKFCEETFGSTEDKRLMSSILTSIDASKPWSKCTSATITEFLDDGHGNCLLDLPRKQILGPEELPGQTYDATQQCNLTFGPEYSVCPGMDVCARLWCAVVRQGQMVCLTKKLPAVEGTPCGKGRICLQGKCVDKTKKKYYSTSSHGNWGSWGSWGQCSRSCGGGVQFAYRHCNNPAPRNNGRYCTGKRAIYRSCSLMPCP

MMP1 = target: T2, MMP1 (human, UniProt P03956 100-469, limits assumed)
T2 sequence (looked up): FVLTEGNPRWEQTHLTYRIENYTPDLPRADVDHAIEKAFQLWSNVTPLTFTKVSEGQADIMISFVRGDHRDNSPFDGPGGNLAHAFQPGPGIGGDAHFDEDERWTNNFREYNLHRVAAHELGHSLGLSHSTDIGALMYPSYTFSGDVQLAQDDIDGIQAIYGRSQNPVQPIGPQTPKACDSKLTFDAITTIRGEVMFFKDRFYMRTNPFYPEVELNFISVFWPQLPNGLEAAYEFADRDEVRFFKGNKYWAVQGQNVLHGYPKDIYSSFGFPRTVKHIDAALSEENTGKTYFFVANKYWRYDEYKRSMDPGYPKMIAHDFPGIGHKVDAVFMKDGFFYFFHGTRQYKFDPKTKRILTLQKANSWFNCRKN

ADAMTS4 = target: T3, ADAMTS4 (human, UniProt O75173 213-685, limits assumed)
T3 sequence (looked up): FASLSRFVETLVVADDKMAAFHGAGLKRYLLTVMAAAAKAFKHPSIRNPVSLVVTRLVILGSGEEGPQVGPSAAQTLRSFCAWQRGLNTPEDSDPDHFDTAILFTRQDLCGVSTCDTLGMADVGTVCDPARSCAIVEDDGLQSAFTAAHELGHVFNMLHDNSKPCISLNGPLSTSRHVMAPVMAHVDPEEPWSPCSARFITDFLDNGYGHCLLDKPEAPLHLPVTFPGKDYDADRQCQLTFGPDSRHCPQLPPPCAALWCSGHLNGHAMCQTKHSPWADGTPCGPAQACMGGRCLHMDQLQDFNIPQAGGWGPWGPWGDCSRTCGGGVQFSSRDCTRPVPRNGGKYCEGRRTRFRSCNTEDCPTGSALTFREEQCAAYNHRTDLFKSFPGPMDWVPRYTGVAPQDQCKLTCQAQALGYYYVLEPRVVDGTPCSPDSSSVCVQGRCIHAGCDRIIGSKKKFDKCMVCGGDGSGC

MMP2 = target: T4, MMP2 (human, UniProt P08253 110-660, limits assumed)
T4 sequence (looked up): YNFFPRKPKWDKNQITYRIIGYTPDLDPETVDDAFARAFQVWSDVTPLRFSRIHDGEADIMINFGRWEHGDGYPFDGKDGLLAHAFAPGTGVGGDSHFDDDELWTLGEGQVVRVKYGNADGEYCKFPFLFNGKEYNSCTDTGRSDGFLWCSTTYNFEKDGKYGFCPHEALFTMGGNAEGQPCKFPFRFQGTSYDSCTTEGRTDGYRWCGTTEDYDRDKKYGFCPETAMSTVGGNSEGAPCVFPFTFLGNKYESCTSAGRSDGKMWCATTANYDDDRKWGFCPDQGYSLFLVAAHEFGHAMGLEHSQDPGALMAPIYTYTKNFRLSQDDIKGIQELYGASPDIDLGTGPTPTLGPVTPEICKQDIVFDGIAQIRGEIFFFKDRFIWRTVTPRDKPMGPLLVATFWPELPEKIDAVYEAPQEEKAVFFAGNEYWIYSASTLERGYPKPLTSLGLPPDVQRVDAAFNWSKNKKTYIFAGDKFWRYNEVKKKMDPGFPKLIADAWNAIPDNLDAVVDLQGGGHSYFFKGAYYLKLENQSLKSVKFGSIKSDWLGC

MMP3 = MMP3 (human, UniProt P08254 100-477, limits assumed)
Cathepsin G = target: T5, Cathepsin G (UniProt P08311 21-244)
T5 sequence (looked up): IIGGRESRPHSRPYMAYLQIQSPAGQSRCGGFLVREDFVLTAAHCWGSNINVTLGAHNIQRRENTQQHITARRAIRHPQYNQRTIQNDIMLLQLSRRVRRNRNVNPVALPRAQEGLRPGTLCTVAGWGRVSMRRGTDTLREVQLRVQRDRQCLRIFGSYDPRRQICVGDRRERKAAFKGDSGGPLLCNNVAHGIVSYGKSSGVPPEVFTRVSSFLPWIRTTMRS

Elastase = target: Elastase

MMP8, sequence (P22894 101-467 limits assumed): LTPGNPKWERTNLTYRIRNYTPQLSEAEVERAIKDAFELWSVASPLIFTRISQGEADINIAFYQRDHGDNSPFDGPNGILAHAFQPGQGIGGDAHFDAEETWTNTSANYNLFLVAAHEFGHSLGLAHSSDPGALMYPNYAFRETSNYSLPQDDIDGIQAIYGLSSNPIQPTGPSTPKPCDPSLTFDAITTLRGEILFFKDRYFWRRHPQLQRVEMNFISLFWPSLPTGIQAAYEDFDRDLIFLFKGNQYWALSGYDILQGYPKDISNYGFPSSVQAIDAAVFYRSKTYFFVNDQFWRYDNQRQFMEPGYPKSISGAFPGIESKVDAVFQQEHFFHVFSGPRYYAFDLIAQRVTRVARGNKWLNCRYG
MMP9, sequence (P14780 107-707 limits assumed): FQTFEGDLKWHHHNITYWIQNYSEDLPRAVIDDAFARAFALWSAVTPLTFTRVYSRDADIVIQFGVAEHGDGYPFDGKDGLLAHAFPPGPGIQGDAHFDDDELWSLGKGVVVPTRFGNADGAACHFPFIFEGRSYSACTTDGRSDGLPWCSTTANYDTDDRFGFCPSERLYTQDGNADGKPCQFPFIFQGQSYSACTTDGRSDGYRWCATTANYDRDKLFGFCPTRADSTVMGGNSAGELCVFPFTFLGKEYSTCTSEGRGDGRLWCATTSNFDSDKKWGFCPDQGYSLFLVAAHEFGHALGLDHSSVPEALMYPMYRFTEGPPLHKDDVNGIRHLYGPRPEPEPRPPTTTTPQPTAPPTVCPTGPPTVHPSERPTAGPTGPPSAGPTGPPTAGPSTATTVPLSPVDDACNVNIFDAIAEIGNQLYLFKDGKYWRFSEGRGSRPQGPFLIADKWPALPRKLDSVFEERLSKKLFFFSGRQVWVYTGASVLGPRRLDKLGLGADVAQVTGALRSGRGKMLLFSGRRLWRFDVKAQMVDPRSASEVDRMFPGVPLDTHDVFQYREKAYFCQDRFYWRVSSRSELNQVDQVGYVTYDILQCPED
MMP3, sequence (P08254 100-477 limits assumed): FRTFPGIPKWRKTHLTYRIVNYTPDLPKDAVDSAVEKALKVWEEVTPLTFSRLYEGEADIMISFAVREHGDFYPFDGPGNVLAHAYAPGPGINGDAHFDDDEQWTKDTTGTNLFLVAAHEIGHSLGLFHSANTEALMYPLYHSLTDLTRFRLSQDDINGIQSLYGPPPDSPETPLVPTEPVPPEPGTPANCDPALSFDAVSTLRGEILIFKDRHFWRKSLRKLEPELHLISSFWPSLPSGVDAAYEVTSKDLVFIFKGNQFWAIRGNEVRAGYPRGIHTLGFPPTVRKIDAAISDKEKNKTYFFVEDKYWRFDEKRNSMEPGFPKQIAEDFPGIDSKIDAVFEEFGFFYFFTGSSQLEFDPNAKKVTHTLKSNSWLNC

B1: Variant A2M, bait region SEQ ID NO 87 (other)
chain: SVSGKPQYMVLVPSLLHTETTEKGCVLLSYLNETVTVSASLESVRGNRSLFTDLEAENDVLHCVAFAVPKSSSNEEVMFLTVQVKGPTQEFKKRTTVMVKNEDSLVFVQTDKSIYKPGQTVKFRVVSMDENFHPLNELIPLVYIQDPKGNRIAQWQSFQLEGGLKQFSFPLSSEPFQGSYKVVVQKKSGGRTEHPFTVEEFVLPKFEVQVTVPKIITILEEEMNVSVCGLYTYGKPVPGHVTVSICRKYSDASDCHGEDSQAFCEKFSGQLNSHGCFYQQVKTKVFQLKRKEYEMKLHTEAQIQEEGTVVELTGRQSSEITRTITKLSFVKVDSHFRQGIPFFGQVRLVDGKGVPIPNKVIFIRGNEANYYSNATTDEHGLVQFSINTTNVMGTSLTVRVNYKDRSPCYGYQWVSEEHEEAHHTAYLVFSPSKSFVHLEPMSHELPCGHTQTVQAHYILNGGTLLGLKKLSFYYLIMAKGGIVRTGTHGLLVKQEDMKGHFSISIPVKSDIAPVARLLIYAVLPTGDVIGDSAKYDVENCLANKVDLSFSPSQSLPASHAHLRVTAAPQSVCALRAVDQSVLLMKPDAELSASSVYNLLPEKDLTGFPGPLNDQDDEDCINRHNVYINGITYTPVSSTNEKDMYSFLEDMGLKAFTNSKIRKPKMCPQLEQYEMHGPEGLRVGKEEEGLGSSELEGRGSTAQEAGEGKLRKYFPETWIWDLVVVNSAGVAEVGVTVPDTITEWKAGAFCLSEDAGLGISSTASLRAFQPFFVELTMPYSVIRGEAFTLKATVLNYLPKCIRVSVQLEASPAFLAVPVEKEQAPHCICANGRQTVSWAVTPKSLGNVNFTVSAEALESQELCGTEVPSVPEHGRKDTVIKPLLVEPEGLEKETTFNSLLCPSGGEVSEELSLKLPPNVVEESARASVSVLGDILGSAMQNTQNLLQMPYGCGEQNMVLFAPNIYVLDYLNETQQLTPEIKSKAIGYLNTGYQRQLNYKHYDGSYSTFGERYGRNQGNTWLTAFVLKTFAQARAYIFIDEAHITQALIWLSQRQKDNGCFRSSGSLLNNAIKGGVEDEVTLSAYITIALLEIPLTVTHPVVRNALFCLESAWKTAQEGDHGSHVYTKALLAYAFALAGNQDKRKEVLKSLNEEAVKKDNSVHWERPQKPKAPVGHFYEPQAPSAEVEMTSYVLLAYLTAQPAPTSEDLTSATNIVKWITKQQNAQGGFSSTQDTVVALHALSKYGAATFTRTGKAAQVTIQSSGTFSSKFQVDNNNRLLLQQVSLPELPGEYSMKVTGEGCVYLQTSLKYNILPEKEEFPFALGVQTLPQTCDEPKAHTSFQISLSVSYTGSRSASNMAIVDVKMVSGFIPLKPTVKMLERSNHVSRTEVSSNHVLIYLDKVSNQTLSLFFTVLQDVPVRDLKPAIVKVYDYYETDEFAIAEYNAPCSKDLGNADYKDDDDKGASHHHHHH
In the case of B1, the “Protease Inhibition (% of WT)” value (MMP8) is reported as 40 % of WT, the “Protease Inhibition (% of WT)” value (MMP9) is reported as 70 % of WT and the “Protease Inhibition (% of WT)” value (MMP13) is reported as 150 % of WT. For the same binder, the “Protease Inhibition (% of WT)” value (ADAMTS5) was 170 % of WT, the “Protease Inhibition (% of WT)” value (MMP1) was 150 % of WT and the “Protease Inhibition (% of WT)” value (ADAMTS4) was 160 % of WT. For the same binder, the “Protease Inhibition (% of WT)” value (MMP2) was 100 % of WT and the “Protease Inhibition (% of WT)” value (MMP3) was 40 % of WT.

B2: Variant A2M, bait region SEQ ID NO 134 (other)
chain: SVSGKPQYMVLVPSLLHTETTEKGCVLLSYLNETVTVSASLESVRGNRSLFTDLEAENDVLHCVAFAVPKSSSNEEVMFLTVQVKGPTQEFKKRTTVMVKNEDSLVFVQTDKSIYKPGQTVKFRVVSMDENFHPLNELIPLVYIQDPKGNRIAQWQSFQLEGGLKQFSFPLSSEPFQGSYKVVVQKKSGGRTEHPFTVEEFVLPKFEVQVTVPKIITILEEEMNVSVCGLYTYGKPVPGHVTVSICRKYSDASDCHGEDSQAFCEKFSGQLNSHGCFYQQVKTKVFQLKRKEYEMKLHTEAQIQEEGTVVELTGRQSSEITRTITKLSFVKVDSHFRQGIPFFGQVRLVDGKGVPIPNKVIFIRGNEANYYSNATTDEHGLVQFSINTTNVMGTSLTVRVNYKDRSPCYGYQWVSEEHEEAHHTAYLVFSPSKSFVHLEPMSHELPCGHTQTVQAHYILNGGTLLGLKKLSFYYLIMAKGGIVRTGTHGLLVKQEDMKGHFSISIPVKSDIAPVARLLIYAVLPTGDVIGDSAKYDVENCLANKVDLSFSPSQSLPASHAHLRVTAAPQSVCALRAVDQSVLLMKPDAELSASSVYNLLPEKDLTGFPGPLNDQDDEDCINRHNVYINGITYTPVSSTNEKDMYSFLEDMGLKAFTNSKIRKPKMCPQLEQYEMHGPSELEGRGSIPENFFGVKEEEGLGSSEDLVVQIVEEPHTKLRKYFPETWIWDLVVVNSAGVAEVGVTVPDTITEWKAGAFCLSEDAGLGISSTASLRAFQPFFVELTMPYSVIRGEAFTLKATVLNYLPKCIRVSVQLEASPAFLAVPVEKEQAPHCICANGRQTVSWAVTPKSLGNVNFTVSAEALESQELCGTEVPSVPEHGRKDTVIKPLLVEPEGLEKETTFNSLLCPSGGEVSEELSLKLPPNVVEESARASVSVLGDILGSAMQNTQNLLQMPYGCGEQNMVLFAPNIYVLDYLNETQQLTPEIKSKAIGYLNTGYQRQLNYKHYDGSYSTFGERYGRNQGNTWLTAFVLKTFAQARAYIFIDEAHITQALIWLSQRQKDNGCFRSSGSLLNNAIKGGVEDEVTLSAYITIALLEIPLTVTHPVVRNALFCLESAWKTAQEGDHGSHVYTKALLAYAFALAGNQDKRKEVLKSLNEEAVKKDNSVHWERPQKPKAPVGHFYEPQAPSAEVEMTSYVLLAYLTAQPAPTSEDLTSATNIVKWITKQQNAQGGFSSTQDTVVALHALSKYGAATFTRTGKAAQVTIQSSGTFSSKFQVDNNNRLLLQQVSLPELPGEYSMKVTGEGCVYLQTSLKYNILPEKEEFPFALGVQTLPQTCDEPKAHTSFQISLSVSYTGSRSASNMAIVDVKMVSGFIPLKPTVKMLERSNHVSRTEVSSNHVLIYLDKVSNQTLSLFFTVLQDVPVRDLKPAIVKVYDYYETDEFAIAEYNAPCSKDLGNADYKDDDDKGASHHHHHH
With B2 the “Protease Inhibition (% of WT)” value (MMP8) was 200 % of WT, the “Protease Inhibition (% of WT)” value (MMP1) was 200 % of WT and the “Protease Inhibition (% of WT)” value (Cathepsin G) was 250 % of WT. For the same binder, the “Protease Inhibition (% of WT)” value (Elastase) was 300 % of WT.
